Results from patent US20180009897A1 (IGM BIOSCIENCES, published 2018).

Columns and labels:
Experiment in all cases: specificity ELISA as in Example 2, receptor coated
[1] = biological target: T1, Soluble DR4 protein (R&D Systems Catalog #347-DR-100/CF) (human, UniProt O00220 24-239, limits assumed)
T1 construct: also called human DR4; TRAILR1
T1 sequence (looked up): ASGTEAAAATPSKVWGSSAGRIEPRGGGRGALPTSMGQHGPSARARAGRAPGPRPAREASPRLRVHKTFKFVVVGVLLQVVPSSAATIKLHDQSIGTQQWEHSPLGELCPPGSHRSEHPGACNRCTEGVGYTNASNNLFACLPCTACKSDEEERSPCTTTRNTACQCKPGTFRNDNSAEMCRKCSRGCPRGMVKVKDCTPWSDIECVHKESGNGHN
Experimental: (§1) Soluble DR5, DR4, DcR1, or DcR2 protein (R&D Systems Catalog #631-T2-100/CF, 347-DR-100/CF, 630-TR-100/CF, 633-TR-100 respectively) were coated on an ELISA plate at 2 μg/mL in 100 mM NaHCO₃ pH 9.5 overnight at 4° C. A solution of 2% BSA in PBS was used for the blocking and antibody incubation steps. The plate was blocked for 1 hour at room temperature, then incubated with mouse anti-human DR5 mAb (Acris Antibodies Catalog #AM31206AF-N) for 1 hour at room temperature. anti-DR5 mAb was 3-fold serially diluted to concentrations ranging from 1 to 200 μg/mL. After washing 3 times with PBS plus 0.05% Tween-20, the plate was incubated with rat anti-mouse kappa-HRP (Southern Biotech Catalog #1180-05) for 1 hour at room temperature, protected from light. After washing 3 times with PBS plus 0.05% Tween-20, the plate was incubated with TMB substrate (BD Biosciences Catalog #555214) for 20 minutes at room temperature. The reaction was stopped with 1M H₂SO₄ and absorbance at 450 nm was determined using a microtiter plate reader.
(§2) For Human Anti-DR5 mAb ELISAs, 1:2000 Mouse Anti-Human Lambda-HRP (Southern Biotech Catalog #9180-05) or 1:6000 Mouse Anti-Human Kappa-HRP (Southern Biotech Catalog #9230-05) was used for detection.
(§3) An IgG version and pentameric IgM-J chain version of anti-DR5 mAb #2 were tested for binding specificity by ELISA as described in Example 2. As shown in FIG. 8A (IgG) and FIG. 8B (IgM), the antibodies bound to human DR5 but not human DR4 or either of the decoy receptors DcR1 or DcR2.

[2] = biological target: T2, Soluble DcR1 protein (R&D Systems Catalog #630-TR-100/CF) (UniProt O14798 26-221, limits assumed)
T2 construct: also called decoy receptor DcR1; TRAILR3
T2 sequence (looked up): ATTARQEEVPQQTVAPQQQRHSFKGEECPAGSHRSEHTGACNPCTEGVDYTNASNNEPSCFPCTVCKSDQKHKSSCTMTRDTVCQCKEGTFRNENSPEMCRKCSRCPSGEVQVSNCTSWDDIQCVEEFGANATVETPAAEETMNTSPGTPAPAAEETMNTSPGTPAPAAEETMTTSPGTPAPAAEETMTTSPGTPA
Experimental: as §1, §2, §3

[3] = biological target: T3, Soluble DcR2 protein (R&D Systems Catalog #633-TR-100) (UniProt Q9UBN6 56-211, limits assumed)
T3 construct: also called decoy receptor DcR2; TRAILR4
T3 sequence (looked up): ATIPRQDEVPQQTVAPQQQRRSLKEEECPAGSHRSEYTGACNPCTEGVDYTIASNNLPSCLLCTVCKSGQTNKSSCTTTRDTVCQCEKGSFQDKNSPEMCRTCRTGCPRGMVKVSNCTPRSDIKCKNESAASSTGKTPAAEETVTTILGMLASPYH
Experimental: as §1, §2, §3

binding result [1]: no binding | binding result [2]: no binding | binding result [3]: no binding
B1: Anti-DR5 mAb #2, pentameric IgM-J chain version (antibody, V domains shown)
VH: QVQLQESGPGLVKPSQTLSLTCTVSGGSISSGDYFWSWIRQLPGKGLECIGHIHNSGTTYYNPSLKSRVTISVDTSKKQFSLRLSSVTAADTAVYYCARDRGGDYYYGMDVWGQGTTVTVSS
VL: EIVLTQSPGTLSLSPGERATLSCRASQGISRSYLAWYQQKPGQAPSLLIYGASSRATGIPDRFSGSGSGTDFTLTISRLEPEDFAVYYCQQFGSSPWTFGQGTKVEIK
modifications: Assembled as a pentamer of bivalent IgM binding units with one J chain (10 VH/VL pairs); the letters do not carry this.
notes: VH and VL were inserted into proprietary IgM vectors; also called DR5 MAb IgM #2; IgM Anti-DR5 mAb #2; not shown: IgM heavy-chain constant region, kappa light-chain constant region and J chain of the construct
